According to US20130109581A1, “POSITIVELY CHARGED SPECIES AS BINDING REAGENTS IN THE SEPARATION OF PROTEIN AGGREGATES FROM MONOMERS” (priority 2009, published 2013):
Where two headings read alike, the source gives them in different places.

What was measured:
Abeta 1-42 globulomer [1] = molecular target: Abeta 1-42 globulomer (UniProt P05067); test: MPA, globulomer Abeta 42 RLU over average Abeta 40 RLU, ASB-14 wash
Abeta 1-42 globulomer [2] = molecular target: Abeta 1-42 globulomer (UniProt P05067); test: MPA, 0.5 over 0 ng/mL globulomer in CSF, ASB-14 wash
Abeta 1-42 globulomer [3] = molecular target: Abeta 1-42 globulomer (UniProt P05067); test: MPA, CSF + 0.5 ng/mL globulomer, Pluronic F-127 wash
Abeta 1-42 globulomer [4] = molecular target: Abeta 1-42 globulomer (UniProt P05067); test: MPA, 0.5 over 0 ng/mL globulomer in CSF, ZW3-14 wash
Abeta 1-42 monomer [5] = molecular target: Abeta 1-42 monomer (UniProt P05067); test: MPA, unspiked CSF background, ASB-16 wash
Abeta 1-42 globulomer [6] = molecular target: Abeta 1-42 globulomer (UniProt P05067); test: MPA, pulldown in CSF, 1% TW20 wash
Abeta 1-42 globulomer [7] = molecular target: Abeta 1-42 globulomer (UniProt P05067)
Abeta 1-42 globulomer [8] = molecular target: Abeta 1-42 globulomer (UniProt P05067); test: MPA, globulomer Abeta 42 RLU over average Abeta 40 RLU, ZW3-16 wash
Abeta 1-42 globulomer [9] = molecular target: Abeta 1-42 globulomer (UniProt P05067); test: MPA, pulldown in CSF, no added detergent wash
Abeta 1-42 globulomer [10] = molecular target: Abeta 1-42 globulomer (UniProt P05067); test: MPA, globulomer Abeta 42 RLU over average Abeta 40 RLU, ZW3-08 wash
Abeta 1-42 monomer [11] = molecular target: Abeta 1-42 monomer (UniProt P05067); test: MPA, unspiked CSF background, Pluronic F-127 wash
Abeta 1-42 globulomer [12] = molecular target: Abeta 1-42 globulomer (UniProt P05067); test: MPA, 0.5 over 0 ng/mL globulomer in CSF, ASB-C8phn wash
Abeta 1-42 globulomer [13] = molecular target: Abeta 1-42 globulomer (UniProt P05067); test: MPA, PSR1 beads, globulomer spiked into normal CSF
Abeta 1-42 monomer [14] = molecular target: Abeta 1-42 monomer (UniProt P05067); test: MPA, unspiked CSF background, ZW3-08 wash
Abeta 1-42 globulomer [15] = molecular target: Abeta 1-42 globulomer (UniProt P05067); test: MPA, globulomer Abeta 42 RLU over average Abeta 40 RLU, ASB-C8phn wash
Abeta 1-42 monomer [16] = molecular target: Abeta 1-42 monomer (UniProt P05067); test: MPA, unspiked CSF background, Empigen wash
Abeta 1-42 globulomer [17] = molecular target: Abeta 1-42 globulomer (UniProt P05067); test: MPA bead capture, CSF + 1 ng/mL globulomer, Abeta immunoassay
Abeta 1-42 monomer [18] = molecular target: Abeta 1-42 monomer (UniProt P05067); test: MPA, unspiked CSF background, ASB-C8phn wash
Abeta 1-42 globulomer [19] = molecular target: Abeta 1-42 globulomer (UniProt P05067); test: MPA, CSF + 0.5 ng/mL globulomer, ZW3-08 wash
Abeta 1-42 monomer [20] = molecular target: Abeta 1-42 monomer (UniProt P05067); test: MPA, unspiked CSF background, Brij 35 wash
Abeta 1-42 globulomer [21] = molecular target: Abeta 1-42 globulomer (UniProt P05067); test: MPA, 0.5 over 0 ng/mL globulomer in CSF, ZW3-08 wash
Abeta 1-42 globulomer [22] = molecular target: Abeta 1-42 globulomer (UniProt P05067); test: 42 (globulomer) RLU over 40 (Abeta 1-40 monomer) RLU
Abeta 1-42 globulomer [23] = molecular target: Abeta 1-42 globulomer (UniProt P05067); test: MPA, globulomer Abeta 42 RLU over average Abeta 40 RLU, Pluronic F-127 wash
ASPD (Abeta42 aggregate) = ASPD (Abeta42 aggregate) (UniProt P05067); test: MPA, serial dilutions in CSF, LoD = 2x over background
ADDL (Abeta42 aggregate) = ADDL (Abeta42 aggregate) (UniProt P05067); test: as above
Abeta42 fibrils = Abeta42 fibrils (UniProt P05067); test: as above
Abeta 1-42 monomer [24] = molecular target: Abeta 1-42 monomer (UniProt P05067); test: as above
Abeta 1-42 globulomer [25] = molecular target: Abeta 1-42 globulomer (UniProt P05067); test: as above
Abeta 1-42 globulomer [26] = molecular target: Abeta 1-42 globulomer (UniProt P05067); test: MPA, 0.5 over 0 ng/mL globulomer in CSF, Empigen wash

**Q.** Which S/N Abeta 42 globulomer-spiked/Abeta 40 (Abeta 1-42 globulomer [1]) does the source give for “PSR1 (peptoid, directly conjugated to Dynal M270 beads)” here?
**A.** Its S/N Abeta 42 globulomer-spiked/Abeta 40 is 2.

**Q.** And the S/N Abeta 42 globulomer-spiked/unspiked (Abeta 1-42 globulomer [2])?
**A.** Its S/N Abeta 42 globulomer-spiked/unspiked is 8.7.

**Q.** And the Abeta 42 RLU, 0.5 ng/mL Average (Abeta 1-42 globulomer [3])?
**A.** Its Abeta 42 RLU, 0.5 ng/mL Average is 739 RLU.

**Q.** What about the S/N Abeta 42 globulomer-spiked/unspiked (Abeta 1-42 globulomer [4]) of the same substance?
**A.** Its S/N Abeta 42 globulomer-spiked/unspiked is 7.7.

**Q.** What about the Abeta 42 RLU, 0 ng/mL Average (Abeta 1-42 monomer [5]) of the same substance?
**A.** The Abeta 42 RLU, 0 ng/mL Average was 95.7 RLU.

**Q.** And the LoD of globulomer, RLU (S/N = 2) (Abeta 1-42 globulomer [6])?
**A.** Its LoD of globulomer, RLU (S/N = 2) is 211 RLU.

**Q.** What about the LoD of globulomer, pg/mL (Cal) (Abeta 1-42 globulomer [6]) of the same substance?
**A.** Its LoD of globulomer, pg/mL (Cal) is 2.52 pg/mL.

**Q.** What about the S/N at 25.3 pg/mL (Abeta 1-42 globulomer [6]) of the same substance?
**A.** Its S/N at 25.3 pg/mL is 11.

**Q.** And the LoD of globulomer, RLU (S/N = 2) (Abeta 1-42 globulomer [7])?
**A.** Its LoD of globulomer, RLU (S/N = 2) is 199 RLU.

**Q.** And the LoD of globulomer, pg/mL (Cal) (Abeta 1-42 globulomer [7])?
**A.** The LoD of globulomer, pg/mL (Cal) was 2.33 pg/mL.

**Q.** And the S/N at 25.3 pg/mL (Abeta 1-42 globulomer [7])?
**A.** The S/N at 25.3 pg/mL was 10.3.

**Q.** And the S/N Abeta 42 globulomer-spiked/Abeta 40 (Abeta 1-42 globulomer [8])?
**A.** Its S/N Abeta 42 globulomer-spiked/Abeta 40 is 3.7.

**Q.** And the LoD of globulomer, RLU (S/N = 2) (Abeta 1-42 globulomer [9])?
**A.** Its LoD of globulomer, RLU (S/N = 2) is 456 RLU.

**Q.** What about the LoD of globulomer, pg/mL (Cal) (Abeta 1-42 globulomer [9]) of the same substance?
**A.** The LoD of globulomer, pg/mL (Cal) was 6.16 pg/mL.

**Q.** And the S/N at 25.3 pg/mL (Abeta 1-42 globulomer [9])?
**A.** The S/N at 25.3 pg/mL was 5.7.

**Q.** And the S/N Abeta 42 globulomer-spiked/Abeta 40 (Abeta 1-42 globulomer [10])?
**A.** The S/N Abeta 42 globulomer-spiked/Abeta 40 was 0.9.

**Q.** And the Abeta 42 RLU, 0 ng/mL Average (Abeta 1-42 monomer [11])?
**A.** Its Abeta 42 RLU, 0 ng/mL Average is 117 RLU.

**Q.** What about the S/N Abeta 42 globulomer-spiked/unspiked (Abeta 1-42 globulomer [12]) of the same substance?
**A.** Its S/N Abeta 42 globulomer-spiked/unspiked is 9.3.

**Q.** What about the limit of detection (LoD) (Abeta 1-42 globulomer [13]) of the same substance?
**A.** The limit of detection (LoD) was 10 pM.

**Q.** What about the Abeta 42 RLU, 0 ng/mL Average (Abeta 1-42 monomer [14]) of the same substance?
**A.** Its Abeta 42 RLU, 0 ng/mL Average is 97.7 RLU.

**Q.** What about the S/N Abeta 42 globulomer-spiked/Abeta 40 (Abeta 1-42 globulomer [15]) of the same substance?
**A.** Its S/N Abeta 42 globulomer-spiked/Abeta 40 is 1.4.

**Q.** What about the Abeta 42 RLU, 0 ng/mL Average (Abeta 1-42 monomer [16]) of the same substance?
**A.** Its Abeta 42 RLU, 0 ng/mL Average is 76.7 RLU.

**Q.** And the average RLU (42) (Abeta 1-42 globulomer [17])?
**A.** The average RLU (42) was 970 RLU.

**Q.** What about the Abeta 42 RLU, 0 ng/mL Average (Abeta 1-42 monomer [18]) of the same substance?
**A.** The Abeta 42 RLU, 0 ng/mL Average was 101 RLU.

**Q.** And the Abeta 42 RLU, 0.5 ng/mL Average (Abeta 1-42 globulomer [19])?
**A.** The Abeta 42 RLU, 0.5 ng/mL Average was 669 RLU.

**Q.** And the Abeta 42 RLU, 0 ng/mL Average (Abeta 1-42 monomer [20])?
**A.** Its Abeta 42 RLU, 0 ng/mL Average is 117 RLU.

**Q.** What about the S/N Abeta 42 globulomer-spiked/unspiked (Abeta 1-42 globulomer [21]) of the same substance?
**A.** Its S/N Abeta 42 globulomer-spiked/unspiked is 6.8.

**Q.** And the 42:40 ratio (Abeta 1-42 globulomer [22])?
**A.** Its 42:40 ratio is 4.1.

**Q.** And the S/N Abeta 42 globulomer-spiked/Abeta 40 (Abeta 1-42 globulomer [23])?
**A.** The S/N Abeta 42 globulomer-spiked/Abeta 40 was 0.9.

**Q.** What about the LoD (ASPD (Abeta42 aggregate)) of the same substance?
**A.** Its LoD is 200 pg/mL.

**Q.** What about the LoD (amol) (ASPD (Abeta42 aggregate)) of the same substance?
**A.** Its LoD (amol) is 20 amol.

**Q.** And the LoD (ADDL (Abeta42 aggregate))?
**A.** Its LoD is 200 pg/mL.

**Q.** And the LoD (amol) (ADDL (Abeta42 aggregate))?
**A.** The LoD (amol) was 20 amol.

**Q.** And the LoD (Abeta42 fibrils)?
**A.** The LoD was 50 pg/mL.

**Q.** What about the LoD (amol) (Abeta42 fibrils) of the same substance?
**A.** Its LoD (amol) is < 2 amol.

**Q.** What about the LoD (Abeta 1-42 monomer [24]) of the same substance?
**A.** Its LoD is 1000 pg/mL.

**Q.** And the LoD (amol) (Abeta 1-42 monomer [24])?
**A.** Its LoD (amol) is 22000 amol.

**Q.** And the LoD (Abeta 1-42 globulomer [25])?
**A.** Its LoD is 75 pg/mL.

**Q.** What about the LoD (amol) (Abeta 1-42 globulomer [25]) of the same substance?
**A.** Its LoD (amol) is 140 amol.

**Q.** What about the S/N Abeta 42 globulomer-spiked/unspiked (Abeta 1-42 globulomer [26]) of the same substance?
**A.** Its S/N Abeta 42 globulomer-spiked/unspiked is 8.7.
